Data reported in patent US20180360972A1 (REGENTS OF THE UNIVERSITY OF MINNESOTA, published 2018).
Blank lines part the entries; values can stand above or below the binder they belong to. Square brackets hold non-standard residues; d marks the D form. d2Nal = N[C@H](Cc1ccc2ccccc2c1)C(=O)O

Key:
[1] = target: T1, mMC4R-HaloTag fusion protein (mouse, UniProt P56450 1-332, HaloTag NanoBRET 618 ligand bound to the HaloTag); assay: NanoBRET in transiently transfected cells; basal signal with assay buffer set as 100%
T1 construct: whole, on cells; not shown: HaloTag on the C-terminus

[2] = target: human melanocortin-4 receptor (hMC4R), stably expressed in HEK293 cells (human, UniProt P32245 1-332); assay: cell-based or functional assay
[3] = target: hMC4R PRESTO-Tango plasmid construct, transiently expressed in HTLA cells (human, UniProt P32245 1-332); assay: cell-based or functional assay
hMC4R PRESTO-Tango plasmid construct, transiently expressed in HTLA cells, sequence (P32245 whole entry): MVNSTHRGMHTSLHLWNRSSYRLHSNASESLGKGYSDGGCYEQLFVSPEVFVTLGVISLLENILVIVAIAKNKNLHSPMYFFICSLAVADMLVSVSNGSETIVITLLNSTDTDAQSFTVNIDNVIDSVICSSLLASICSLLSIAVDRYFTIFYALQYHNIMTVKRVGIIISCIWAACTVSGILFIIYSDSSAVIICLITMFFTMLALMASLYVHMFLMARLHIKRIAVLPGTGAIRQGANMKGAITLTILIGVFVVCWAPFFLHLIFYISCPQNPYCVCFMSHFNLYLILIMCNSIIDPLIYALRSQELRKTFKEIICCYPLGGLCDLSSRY

human melanocortin-4 receptor (hMC4R), stably expressed in HEK293 cells, sequence (P32245 whole entry): as above

binding result [1]: binds
B1: mMC4R-NanoLuc fusion protein (receptor, mouse, UniProt P56450 1-332, looked up)
chain: MNSTHHHGMYTSLHLWNRSSYGLHGNASESLGKGHPDGGCYEQLFVSPEVFVTLGVISLLENILVIVAIAKNKNLHSPMYFFICSLAVADMLVSVSNGSETIVITLLNSTDTDAQSFTVNIDNVIDSVICSSLLASICSLLSIAVDRYFTIFYALQYHNIMTVRRVGIIISCIWAACTVSGVLFIIYSDSSAVIICLISMFFTMLVLMASLYVHMFLMARLHIKRIAVLPGTGTIRQGTNMKGAITLTILIGVFVVCWAPFFLHLLFYISCPQNPYCVCFMSHFNLYLILIMCNAVIDPLIYALRSQELRKTFKEIICFYPLGGICELSSRY
notes: whole, on cells; not shown: NanoLuc on the C-terminus

cAMP signaling (AlphaScreen), EC50 [2]: 1.9 nM
B2: equal mixture of tetrapeptides CJL-1-14+CJL-1-80 (other)
peptide 1: Ac-H[dF]RW-NH2
peptide 2: Ac-H[d2Nal]RW-NH2
modifications: also: 1:1 mixture of two separate peptides

β-arrestin recruitment, response at 10 µM relative to the maximal efficacy of NDP-MSH [3]: 30%
B3: CJL-1-80, Ac-His-DNal(2')-Arg-Trp-NH2 (peptide)
peptide: Ac-H[d2Nal]RW-NH2
